Test results reported in US20130315910A1 (Xencor, published 2013).
Where a chain is given by its changes, count along the chain named. Names may count otherwise. Each block holds one binder with its values, some of them ahead of it.

Key:
[1] = target: T1, human FcγRIIb receptor protein (R&D Systems) (human, UniProt P31994 46-217); assay: SPR
T1 construct: Bought protein injected over captured antibody in Biacore; also called CD32b
T1 sequence (looked up): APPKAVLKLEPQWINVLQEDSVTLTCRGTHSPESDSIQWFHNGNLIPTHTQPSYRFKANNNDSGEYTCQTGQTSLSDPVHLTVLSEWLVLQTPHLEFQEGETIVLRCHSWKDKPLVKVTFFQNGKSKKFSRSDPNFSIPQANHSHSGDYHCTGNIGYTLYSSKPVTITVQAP

[2] = target: T2, human FcγRI receptor protein (R&D Systems) (human, UniProt P12314 16-288); assay: SPR
T2 construct: also called soluble FcγRI; solFcγRI

[3] = target: T3, human FcγRIIa (131R), His- and GST-tagged (human, UniProt P12318 34-217); assay: SPR
T3 construct: Expressed in HEK293T cells, purified by nickel chromatography; also called R131 FcγRIIa; not shown: 6xHis and GST tags of the pTT5 vector
T3 sequence (looked up): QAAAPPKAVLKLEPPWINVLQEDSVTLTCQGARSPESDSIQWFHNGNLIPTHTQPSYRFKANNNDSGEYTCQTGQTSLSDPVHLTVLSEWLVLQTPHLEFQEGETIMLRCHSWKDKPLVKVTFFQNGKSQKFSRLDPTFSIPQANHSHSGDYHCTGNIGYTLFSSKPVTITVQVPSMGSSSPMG

[4] = target: T4, human FcγRIIa (131H), His- and GST-tagged (human, UniProt P12318 34-217); assay: SPR
T4 construct: also called H131 FcγRIIa; HIIa; not shown: 6xHis and GST tags of the pTT5 vector
T4 sequence (looked up): T3 sequence (looked up) with R134H

[5] = target: T5, human FcγRIIIa (158V), His- and GST-tagged (human, UniProt P08637 17-208); assay: SPR
T5 construct: also called V158 FcγRIIIa; VIIIa; not shown: 6xHis and GST tags of the pTT5 vector

[6] = target: T6, human FcγRIIIa (158F), His- and GST-tagged (human, UniProt P08637 17-208); assay: SPR
T6 construct: also called F158 FcγRIIIa; not shown: 6xHis and GST tags of the pTT5 vector

[7] = target: T7, mFcγRIIb (Mus musculus, UniProt P08101); assay: SPR, off-rate
T7 construct: extracellular region, C-terminal His- and GST-tag; also called mouse FcγRII
T7 sequence (receptor extracellular region, looked up): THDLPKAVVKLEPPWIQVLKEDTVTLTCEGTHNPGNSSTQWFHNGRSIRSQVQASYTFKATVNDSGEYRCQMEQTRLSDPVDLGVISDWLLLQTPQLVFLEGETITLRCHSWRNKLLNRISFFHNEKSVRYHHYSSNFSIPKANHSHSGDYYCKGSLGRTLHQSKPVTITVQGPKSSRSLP

[8] = target: T8, mFcγRIV; assay: SPR, off-rate
T8 construct: also called mouse FcγRIV; not shown: C-terminal His and GST tags (named only on our card)
T8 chain: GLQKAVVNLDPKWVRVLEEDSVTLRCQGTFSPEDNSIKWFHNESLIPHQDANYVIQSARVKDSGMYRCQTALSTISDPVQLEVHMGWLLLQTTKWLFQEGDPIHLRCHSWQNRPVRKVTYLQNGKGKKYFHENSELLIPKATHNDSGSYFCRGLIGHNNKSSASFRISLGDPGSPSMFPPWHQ

[9] = target: T9, cynoFcγRIIb (Macaca fascicularis, UniProt A0A140HDP4); assay: SPR, off-rate
T9 construct: extracellular region, C-terminal His- and GST-tag; also called cynomolgus monkey FcγRIIb
T9 sequence (receptor extracellular region): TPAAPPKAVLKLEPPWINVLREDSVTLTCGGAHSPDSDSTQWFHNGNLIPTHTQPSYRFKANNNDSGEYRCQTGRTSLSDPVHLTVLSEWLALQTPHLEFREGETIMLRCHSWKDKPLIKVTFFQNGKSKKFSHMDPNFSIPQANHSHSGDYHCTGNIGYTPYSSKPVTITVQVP

[10] = target: T10, cynoFcγRIIIa (Macaca fascicularis, UniProt Q8SPW2); assay: SPR, off-rate
T10 construct: extracellular region, C-terminal His- and GST-tag; also called cynomolgus monkey FcγRIIIa

[11] = target: T7, mFcγRIIb; assay: SPR
[12] = target: T8, mFcγRIV; assay: SPR
[13] = target: T9, cynoFcγRIIb; assay: SPR
[14] = target: T10, cynoFcγRIIIa; assay: SPR
[15] = target: T9, cynoFcγRIIb; assay: SPR, Kd
Method: Variants were screened for receptor affinity using Biacore™ technology, also referred to as Biacore herein, a surface plasmon resonance (SPR) based technology for studying biomolecular interactions in real time. SPR measurements were performed using a Biacore 3000 instrument (Biacore, Piscataway, N.J.). A protein A/G (Pierce Biotechnology) CM5 biosensor chip (Biacore) was generated using a standard primary amine coupling protocol. All measurements were performed using HBS-EP buffer (10 mM HEPES pH 7.4, 0.15 M NaCl, 3 mM EDTA, 0.005% vol/vol surfactant P20, Biacore). Antibodies at 20 nM or 50 nM in HBS-EP buffer were immobilized on the protein A/G surface and FcγRs were injected. After each cycle, the surface was regenerated by injecting glycine buffer (10 mM, pH 1.5). Data were processed by zeroing time and response before the injection of FcγR and by subtracting appropriate nonspecific signals (response of reference channel and injection of running buffer). Kinetic analyses were performed by global fitting of binding data with a 1:1 Langmuir binding model using BIAevaluation software (Biacore).
Variant antibodies were tested for their affinity to mouse or cynologous monkey FcγRs using Biacore SPR as described above. Specifically, antibodies were first immobilized on a protein A/G chip to high density, and then followed by injections of the extracellular domain of the mouse or cynologous monkey FcγR of interest. Both association and dissociation phases were tracked in real time using the Biacore technology.
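For Fold vs WT IgG1 (off-rate) in this document: fold improvement over WT IgG1 so higher means slower dissociation than WT.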

T5 sequence (P08637 17-208 F176V): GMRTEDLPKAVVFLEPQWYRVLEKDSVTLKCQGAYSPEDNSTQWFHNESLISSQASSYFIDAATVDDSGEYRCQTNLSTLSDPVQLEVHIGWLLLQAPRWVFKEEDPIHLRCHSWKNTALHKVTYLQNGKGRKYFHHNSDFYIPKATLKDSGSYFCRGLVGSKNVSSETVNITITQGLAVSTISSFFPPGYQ
T2 sequence (P12314 16-288 limits assumed): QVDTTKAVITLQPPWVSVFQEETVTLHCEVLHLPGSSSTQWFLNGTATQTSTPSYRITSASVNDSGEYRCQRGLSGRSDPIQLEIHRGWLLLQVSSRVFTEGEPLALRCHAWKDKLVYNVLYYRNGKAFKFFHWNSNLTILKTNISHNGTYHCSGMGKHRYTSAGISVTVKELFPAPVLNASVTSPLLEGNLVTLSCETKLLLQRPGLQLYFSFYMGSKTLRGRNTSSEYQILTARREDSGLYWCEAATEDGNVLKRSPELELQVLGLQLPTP
T10 sequence (Q8SPW2 17-208): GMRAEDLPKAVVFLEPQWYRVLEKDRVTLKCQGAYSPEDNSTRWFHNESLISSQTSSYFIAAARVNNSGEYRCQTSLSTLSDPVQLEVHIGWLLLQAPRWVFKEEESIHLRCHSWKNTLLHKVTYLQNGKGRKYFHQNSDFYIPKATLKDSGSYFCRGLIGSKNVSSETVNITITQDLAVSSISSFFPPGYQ
T6 sequence (P08637 17-208): as the sequence (P08637 17-208 F176V) above, with V160F counted along it

Fold vs WT IgG1 [1]: 1.54 fold
Kd [1]: 953 nM
Fold vs WT IgG1 [2]: 0.0211 fold
Kd [2]: 15.6 nM
Fold vs WT IgG1 [3]: 0.758 fold
Kd [3]: 1130 nM
Fold vs WT IgG1 [4]: 0.167 fold
Kd [4]: 3870 nM
binding result [5]: no binding
binding result [6]: no binding
binding result [7]: no binding
binding result [8]: no binding
binding result [9]: no binding
binding result [10]: no binding
B1: G236D (antibody, human IgG1, kappa)
heavy: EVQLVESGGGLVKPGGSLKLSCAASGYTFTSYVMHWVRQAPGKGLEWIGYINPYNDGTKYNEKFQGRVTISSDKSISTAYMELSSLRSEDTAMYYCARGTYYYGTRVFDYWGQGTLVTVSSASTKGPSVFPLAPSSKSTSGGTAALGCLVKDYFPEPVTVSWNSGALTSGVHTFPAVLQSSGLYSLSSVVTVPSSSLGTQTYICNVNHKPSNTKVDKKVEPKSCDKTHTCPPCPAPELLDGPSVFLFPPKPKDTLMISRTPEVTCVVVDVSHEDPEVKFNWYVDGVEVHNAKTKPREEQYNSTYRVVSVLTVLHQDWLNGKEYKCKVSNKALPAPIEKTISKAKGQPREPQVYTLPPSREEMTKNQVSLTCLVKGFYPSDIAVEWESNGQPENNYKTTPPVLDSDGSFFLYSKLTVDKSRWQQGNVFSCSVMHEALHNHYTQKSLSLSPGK
light: DIVMTQSPATLSLSPGERATLSCRSSKSLQNVNGNTYLYWFQQKPGQSPQLLIYRMSNLNSGVPDRFSGSGSGTEFTLTISSLEPEDFAVYYCMQHLEYPITFGAGTKLEIKRTVAAPSVFIFPPSDEQLKSGTASVVCLLNNFYPREAKVQWKVDNALQSGNSQESVTEQDSKDSTYSLSSTLTLSKADYEKHKVYACEVTHQGLSSPVTKSFNRGEC
notes: HuAM4G7 anti-CD19 IgG1 (m1) with this Fc substitution, EU index; copies: 2 + 2

binding result [1]: no binding
binding result [2]: no binding
binding result [3]: no binding
binding result [4]: no binding
binding result [5]: no binding
binding result [6]: no binding
B2: anti-CD19 antibody HuAM4G7 IgG1 ^236R/L328R (antibody)
heavy: EVQLVESGGGLVKPGGSLKLSCAASGYTFTSYVMHWVRQAPGKGLEWIGYINPYNDGTKYNEKFQGRVTISSDKSISTAYMELSSLRSEDTAMYYCARGTYYYGTRVFDYWGQGTLVTVSSASTKGPSVFPLAPSSKSTSGGTAALGCLVKDYFPEPVTVSWNSGALTSGVHTFPAVLQSSGLYSLSSVVTVPSSSLGTQTYICNVNHKPSNTKVDKKVEPKSCDKTHTCPPCPAPELLGRGPSVFLFPPKPKDTLMISRTPEVTCVVVDVSHEDPEVKFNWYVDGVEVHNAKTKPREEQYNSTYRVVSVLTVLHQDWLNGKEYKCKVSNKARPAPIEKTISKAKGQPREPQVYTLPPSREEMTKNQVSLTCLVKGFYPSDIAVEWESNGQPENNYKTTPPVLDSDGSFFLYSKLTVDKSRWQQGNVFSCSVMHEALHNHYTQKSLSLSPGK
light: B1 light
notes: also called Fc-KO; FcγR knockout

Fold vs WT IgG1 [1]: 3.6 fold
Kd [1]: 408 nM
Fold vs WT IgG1 [2]: 3.53 fold
Kd [2]: 0.0934 nM
Fold vs WT IgG1 [3]: 3.73 fold
Kd [3]: 230 nM
Fold vs WT IgG1 [4]: 1.1 fold
Kd [4]: 590 nM
Fold vs WT IgG1 [5]: 8.14 fold
Kd [5]: 23.5 nM
Fold vs WT IgG1 [6]: 6.32 fold
Kd [6]: 214 nM
Fold vs WT IgG1 (Kd) [11]: 2.01 fold
Fold vs WT IgG1 (off-rate) [11]: 2.91 fold
Fold vs WT IgG1 (Kd) [12]: 2.52 fold
Fold vs WT IgG1 (off-rate) [12]: 1.91 fold
Fold vs WT IgG1 (Kd) [13]: 1.64 fold
Fold vs WT IgG1 (off-rate) [13]: 1.99 fold
Fold vs WT IgG1 (Kd) [14]: 7.58 fold
Fold vs WT IgG1 (off-rate) [14]: 2.33 fold
B3: S239D (antibody, human IgG1, kappa)
heavy: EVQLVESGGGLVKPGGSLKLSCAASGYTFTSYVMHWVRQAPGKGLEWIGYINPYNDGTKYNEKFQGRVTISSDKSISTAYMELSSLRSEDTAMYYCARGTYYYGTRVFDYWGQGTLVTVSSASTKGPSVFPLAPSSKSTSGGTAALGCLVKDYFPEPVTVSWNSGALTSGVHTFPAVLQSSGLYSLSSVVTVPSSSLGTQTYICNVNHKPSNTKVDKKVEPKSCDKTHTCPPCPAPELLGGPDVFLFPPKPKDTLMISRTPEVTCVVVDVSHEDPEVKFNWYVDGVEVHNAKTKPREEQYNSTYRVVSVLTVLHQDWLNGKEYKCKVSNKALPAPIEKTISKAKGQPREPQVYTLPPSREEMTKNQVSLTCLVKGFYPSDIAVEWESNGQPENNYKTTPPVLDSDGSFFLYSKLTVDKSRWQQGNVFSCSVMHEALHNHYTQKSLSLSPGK
light: B1 light
notes: as for B1

Fold vs WT IgG1 [1]: 111 fold
Kd [1]: 13.3 nM
Fold vs WT IgG1 [2]: 23.2 fold
Kd [2]: 0.0142 nM
Fold vs WT IgG1 [3]: 120 fold
Kd [3]: 7.16 nM
Fold vs WT IgG1 [4]: 1.27 fold
Kd [4]: 510 nM
Fold vs WT IgG1 [5]: 3.74 fold
Kd [5]: 51.2 nM
Kd [6]: 516 nM
Fold vs WT IgG1 (Kd) [11]: 1.75 fold
Fold vs WT IgG1 (off-rate) [11]: 7.87 fold
Fold vs WT IgG1 (Kd) [12]: 0.726 fold
Fold vs WT IgG1 (off-rate) [12]: 1.54 fold
Fold vs WT IgG1 (Kd) [13]: 1.59 fold
Fold vs WT IgG1 (off-rate) [13]: 2.53 fold
Fold vs WT IgG1 (Kd) [14]: 3.88 fold
Fold vs WT IgG1 (off-rate) [14]: 1.68 fold
B4: anti-CD19 antibody HuAM4G7 IgG1 S239D/S267E (antibody)
heavy: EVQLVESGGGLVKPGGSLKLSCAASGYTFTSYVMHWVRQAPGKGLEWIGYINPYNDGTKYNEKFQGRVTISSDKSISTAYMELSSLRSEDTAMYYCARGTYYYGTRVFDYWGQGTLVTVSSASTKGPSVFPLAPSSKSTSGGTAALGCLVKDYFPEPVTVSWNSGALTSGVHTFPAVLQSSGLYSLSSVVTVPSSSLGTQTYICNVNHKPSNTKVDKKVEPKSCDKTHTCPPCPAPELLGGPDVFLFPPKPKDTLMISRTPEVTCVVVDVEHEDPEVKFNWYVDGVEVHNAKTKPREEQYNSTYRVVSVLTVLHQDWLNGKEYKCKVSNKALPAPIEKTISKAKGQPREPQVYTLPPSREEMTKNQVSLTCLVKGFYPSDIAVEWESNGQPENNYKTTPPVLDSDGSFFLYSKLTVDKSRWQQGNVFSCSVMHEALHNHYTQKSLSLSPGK
light: B1 light
notes: Positions in EU numbering; copies: 2 + 2

binding result [1]: no binding
Fold vs WT IgG1 (Kd) [11]: 2.63 fold
binding result [15]: no binding
B5: A330D (antibody, human IgG1, kappa)
heavy: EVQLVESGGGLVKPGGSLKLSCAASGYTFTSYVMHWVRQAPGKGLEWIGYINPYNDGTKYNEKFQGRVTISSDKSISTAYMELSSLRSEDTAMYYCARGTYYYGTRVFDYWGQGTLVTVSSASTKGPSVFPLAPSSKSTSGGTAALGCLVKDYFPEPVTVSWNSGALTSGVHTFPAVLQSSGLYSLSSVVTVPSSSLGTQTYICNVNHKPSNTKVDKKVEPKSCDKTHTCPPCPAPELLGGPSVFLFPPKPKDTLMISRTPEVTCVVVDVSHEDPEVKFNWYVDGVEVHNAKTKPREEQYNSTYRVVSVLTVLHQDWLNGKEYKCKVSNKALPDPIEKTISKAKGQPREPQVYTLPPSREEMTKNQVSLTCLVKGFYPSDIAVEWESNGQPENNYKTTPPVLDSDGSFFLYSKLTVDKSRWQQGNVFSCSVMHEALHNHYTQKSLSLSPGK
light: B1 light
notes: as for B1

Fold vs WT IgG1 [1]: 0.191 fold
Kd [1]: 7680 nM
Fold vs WT IgG1 [2]: 0.0108 fold
Kd [2]: 30.5 nM
Fold vs WT IgG1 [3]: 0.704 fold
Kd [3]: 1220 nM
binding result [4]: no binding
binding result [5]: no binding
binding result [7]: no binding
binding result [8]: no binding
binding result [9]: no binding
binding result [10]: no binding
B6: G237A (antibody, human IgG1, kappa)
heavy: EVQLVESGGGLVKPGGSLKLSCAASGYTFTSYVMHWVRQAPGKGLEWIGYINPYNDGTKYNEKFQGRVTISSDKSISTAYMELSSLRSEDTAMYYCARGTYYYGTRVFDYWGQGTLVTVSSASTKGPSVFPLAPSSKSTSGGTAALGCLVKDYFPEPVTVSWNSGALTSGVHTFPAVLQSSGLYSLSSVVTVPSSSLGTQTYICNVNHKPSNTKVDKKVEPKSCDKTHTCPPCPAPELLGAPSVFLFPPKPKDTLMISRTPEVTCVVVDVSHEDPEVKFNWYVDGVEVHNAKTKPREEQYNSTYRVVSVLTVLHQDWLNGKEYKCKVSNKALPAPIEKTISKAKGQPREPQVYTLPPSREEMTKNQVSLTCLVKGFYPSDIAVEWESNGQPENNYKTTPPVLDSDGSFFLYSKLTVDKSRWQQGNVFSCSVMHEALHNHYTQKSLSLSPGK
light: B1 light
notes: as for B1

binding result [1]: no binding
binding result [2]: no binding
binding result [3]: no binding
binding result [4]: no binding
binding result [5]: no binding
binding result [6]: no binding
B7: anti-CD19 antibody HuAM4G7 IgG1 G236R/L328R (antibody)
heavy: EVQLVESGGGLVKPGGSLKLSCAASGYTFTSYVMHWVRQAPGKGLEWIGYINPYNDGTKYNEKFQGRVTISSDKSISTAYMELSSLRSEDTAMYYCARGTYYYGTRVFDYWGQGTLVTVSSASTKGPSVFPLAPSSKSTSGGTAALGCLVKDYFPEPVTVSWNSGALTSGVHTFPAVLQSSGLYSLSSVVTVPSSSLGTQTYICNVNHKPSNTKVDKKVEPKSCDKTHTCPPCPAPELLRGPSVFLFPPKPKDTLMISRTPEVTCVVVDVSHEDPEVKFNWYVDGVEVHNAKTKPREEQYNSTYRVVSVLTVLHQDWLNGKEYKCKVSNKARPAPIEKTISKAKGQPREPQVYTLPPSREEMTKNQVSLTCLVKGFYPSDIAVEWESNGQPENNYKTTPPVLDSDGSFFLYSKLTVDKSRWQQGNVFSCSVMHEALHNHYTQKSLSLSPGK
light: B1 light
notes: Control knock out variant; Positions in EU numbering; also called Fc-KO; FcγR knockout

binding result [1]: no binding
Fold vs WT IgG1 (Kd) [11]: 0.013 fold
binding result [15]: no binding
B8: A330H (antibody, human IgG1, kappa)
heavy: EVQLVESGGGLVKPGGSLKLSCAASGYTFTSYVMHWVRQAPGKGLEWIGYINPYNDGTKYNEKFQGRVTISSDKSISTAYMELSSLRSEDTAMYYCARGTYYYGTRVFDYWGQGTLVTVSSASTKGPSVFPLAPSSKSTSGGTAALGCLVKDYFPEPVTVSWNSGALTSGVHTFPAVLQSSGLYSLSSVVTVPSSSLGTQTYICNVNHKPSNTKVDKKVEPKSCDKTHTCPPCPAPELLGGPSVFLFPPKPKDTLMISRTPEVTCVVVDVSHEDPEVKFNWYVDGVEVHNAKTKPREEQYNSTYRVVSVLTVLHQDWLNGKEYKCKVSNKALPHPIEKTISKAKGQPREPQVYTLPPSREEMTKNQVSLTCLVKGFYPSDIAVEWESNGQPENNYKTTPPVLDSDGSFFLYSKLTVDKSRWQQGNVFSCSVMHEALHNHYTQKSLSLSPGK
light: B1 light
notes: as for B1

binding result [1]: no binding
Fold vs WT IgG1 (Kd) [11]: 0.016 fold
binding result [15]: no binding
B9: L328E (antibody, human IgG1, kappa)
heavy: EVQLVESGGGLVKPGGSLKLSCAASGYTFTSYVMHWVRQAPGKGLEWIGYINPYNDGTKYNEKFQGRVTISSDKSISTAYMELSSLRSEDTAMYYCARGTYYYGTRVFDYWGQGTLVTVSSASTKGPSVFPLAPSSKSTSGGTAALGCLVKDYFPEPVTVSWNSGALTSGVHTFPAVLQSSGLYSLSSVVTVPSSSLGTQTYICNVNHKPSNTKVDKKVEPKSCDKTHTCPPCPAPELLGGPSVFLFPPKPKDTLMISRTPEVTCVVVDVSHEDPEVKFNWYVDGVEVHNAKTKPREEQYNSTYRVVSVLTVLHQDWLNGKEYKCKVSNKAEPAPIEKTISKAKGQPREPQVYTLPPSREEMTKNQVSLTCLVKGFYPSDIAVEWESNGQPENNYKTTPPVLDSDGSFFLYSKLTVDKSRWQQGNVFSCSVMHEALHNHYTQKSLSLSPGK
light: B1 light
notes: as for B1
